Blank lines part the entries; values can stand above or below the binder they belong to.
Experiments:
[1] = target: biotinylated recombinant human DCC (human) (UniProt P43146); assay: AVEXIS, prey on bait DCC; white = No binding
[2] = target: T1, human DRAXIN, AVEXIS prey or bait protein (human), Q8NBI3; assay: AVEXIS, prey on bait DRAXIN; white = No binding; settings: remark: other sources report otherwise
T1 chain: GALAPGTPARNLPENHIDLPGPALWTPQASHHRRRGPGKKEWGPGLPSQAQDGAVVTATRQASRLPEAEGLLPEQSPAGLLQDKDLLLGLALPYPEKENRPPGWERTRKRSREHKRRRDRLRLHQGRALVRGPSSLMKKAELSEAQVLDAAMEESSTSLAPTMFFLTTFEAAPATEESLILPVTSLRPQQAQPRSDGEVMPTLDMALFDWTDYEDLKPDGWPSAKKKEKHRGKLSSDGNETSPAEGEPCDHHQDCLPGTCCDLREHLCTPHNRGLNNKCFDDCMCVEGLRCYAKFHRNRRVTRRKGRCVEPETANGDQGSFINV

[3] = target: T1, human DRAXIN, AVEXIS prey or bait …; assay: AVEXIS, prey on bait hDRAXIN, lower value; white = No binding; settings: remark: other sources report otherwise
[4] = target: T1, human DRAXIN, AVEXIS prey or bait …; assay: AVEXIS, prey on bait hDRAXIN, upper value; white = No binding; settings: remark: other sources report otherwise

B4: human DRAXIN, AVEXIS prey or bait protein, Q8NBI3 26-349 (ligand)
chain: T1 chain
A486nm [2]: 0.062
A486nm [3]: 0.057
A486nm [4]: 0.054

B5: human DRAXIN, AVEXIS prey or bait protein (ligand)
chain: T1 chain
A486nm [1]: 0.072

Binder: EVMPTLDMALFDWTDYEDLKP (peptide, not shown: small tags and cut ends) [human DRAXIN 21 amino acid Netrin binding fragment, AVEXIS prey or bait protein]
A486nm [1]: 0.06

Other lines, results leading:

A486nm [1]: 0.063
B1: human Netrin-G1, AVEXIS protein (ligand, UniProt Q9Y2I2 29-510, looked up, not shown: small tags and cut ends)
chain: HYDLCKTQIYTEEGKVWDYMACQPESTDMTKYLKVKLDPPDITCGDPPETFCAMGNPYMCNNECDASTPELAHPPELMFDFEGRHPSTFWQSATWKEYPKPLQVNITLSWSKTIELTDNIVITFESGRPDQMILEKSLDYGRTWQPYQYYATDCLDAFHMDPKSVKDLSQHTVLEIICTEEYSTGYTTNSKIIHFEIKDRFAFFAGPRLRNMASLYGQLDTTKKLRDFFTVTDLRIRLLRPAVGEIFVDELHLARYFYAISDIKVRGRCKCNLHATVCVYDNSKLTCECEHNTTGPDCGKCKKNYQGRPWSPGSYLPIPKGTANTCIPSISSIGNCECFGHSNRCSYIDLLNTVICVSCKHNTRGQHCELCRLGYFRNASAQLDDENVCIECYCNPLGSIHDRCNGSGFCECKTGTTGPKCDECLPGNSWHYGCQPNVCDNELLHCQNGGTCHNNVRCLCPAAYTGILCEKLRCEEAGSCGS

A486nm [1]: 0.065
B2: human Netrin-4, AVEXIS protein (ligand, UniProt Q9HB63 19-628, looked up, not shown: small tags and cut ends)
chain: GLSGVAGVSSRCEKACNPRMGNLALGRKLWADTTCGQNATELYCFYSENTDLTCRQPKCDKCNAAYPHLAHLPSAMADSSFRFPRTWWQSAEDVHREKIQLDLEAEFYFTHLIVMFKSPRPAAMVLDRSQDFGKTWKPYKYFATNCSATFGLEDDVVKKGAICTSKYSSPFPCTGGEVIFKALSPPYDTENPYSAKVQEQLKITNLRVQLLKRQSCPCQRNDLNEEPQHFTHYAIYDFIVKGSCFCNGHADQCIPVHGFRPVKAPGTFHMVHGKCMCKHNTAGSHCQHCAPLYNDRPWEAADGKTGAPNECRTCKCNGHADTCHFDVNVWEASGNRSGGVCDDCQHNTEGQYCQRCKPGFYRDLRRPFSAPDACKPCSCHPVGSAVLPANSVTFCDPSNGDCPCKPGVAGRRCDRCMVGYWGFGDYGCRPCDCAGSCDPITGDCISSHTDIDWYHEVPDFRPVHNKSEPAWEWEDAQGFSALLHSGKCECKEQTLGNAKAFCGMKYSYVLKIKILSAHDKGTHVEVNVKIKKVLKSTKLKIFRGKRTLYPESWTDRGCTCPILNPGLEYLVAGHEDIRTGKLIVNMKSFVQHWKPSLGRKVMDILKRECK

A486nm [1]: 0.065
B3: human Netrin-G2, AVEXIS protein (ligand, UniProt Q96CW9 18-507, looked up, not shown: small tags and cut ends)
chain: DYDICKSWVTTDEGPTWEFYACQPKVMRLKDYVKVKVEPSGITCGDPPERFCSHENPYLCSNECDASNPDLAHPPRLMFDKEEEGLATYWQSITWSRYPSPLEANITLSWNKTVELTDDVVMTFEYGRPTVMVLEKSLDNGRTWQPYQFYAEDCMEAFGMSARRARDMSSSSAHRVLCTEEYSRWAGSKKEKHVRFEVRDRFAIFAGPDLRNMDNLYTRLESAKGLKEFFTLTDLRMRLLRPALGGTYVQRENLYKYFYAISNIEVIGRCKCNLHANLCSMREGSLQCECEHNTTGPDCGKCKKNFRTRSWRAGSYLPLPHGSPNACATAGSFGNCECYGHSNRCSYIDFLNVVTCVSCKHNTRGQHCQHCRLGYYRNGSAELDDENVCIECNCNQIGSVHDRCNETGFCECREGAAGPKCDDCLPTHYWRQGCYPNVCDDDQLLCQNGGTCLQNQRCACPRGYTGVRCEQPRCDPADDDGGLDCDRAPG

— patent publication US20160347802A1
